Changes are numbered by the printed parent chain.
T1: NCA on H647 cells (UniProt P40199 35-320, limits assumed)
T1 construct: whole, on cells; Its identity is an inference
T1 sequence (looked up): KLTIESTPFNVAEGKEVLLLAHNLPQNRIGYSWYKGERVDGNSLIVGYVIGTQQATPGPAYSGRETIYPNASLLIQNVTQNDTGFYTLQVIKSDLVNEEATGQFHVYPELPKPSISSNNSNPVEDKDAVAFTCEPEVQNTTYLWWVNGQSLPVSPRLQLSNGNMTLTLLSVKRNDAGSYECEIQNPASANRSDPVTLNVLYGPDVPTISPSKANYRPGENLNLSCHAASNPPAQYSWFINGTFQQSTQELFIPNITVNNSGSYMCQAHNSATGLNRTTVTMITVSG

B1: DOM 11-3-1/DOM 12-45-2 (bispecific antibody, V domains shown)
V domain 1: DIQMTQSPSSLSASVGDRVTITCRASHNIDSRLSWYQQKPGKAPKLLIYRASVLQSGVPSRFRGSGSGTDFTLTISSLQPEDFATYYCQQWDMFPLSFGQGTKVEIKR
V domain 2: DIQMTQSPSSLSASVGDRVTITCRASQDIGGRLRWYQQKPGKAPKLLIYHGSRLDSGVPSRFSGSRSGADFTLTISSLQPEDFATYYCQQQWYRPYTFGQGTKVEIKR
B2: DOM 11-3-15/DOM 12-45-2 (bispecific antibody, V domains shown)
V domain 1: B1 V domain 1 with H27Q, R63S, S65T
V domain 2: B1 V domain 2
B3: DOM 11-3-20/DOM 12-45-2 (bispecific antibody, V domains shown)
V domain 1: B1 V domain 1 with M4T, H27Q, A51S, R63S, S97M
V domain 2: B1 V domain 2
B4: DOM 11-3-23/DOM 12-45-2 (bispecific antibody, V domains shown)
V domain 1: B1 V domain 1 with H27Q, R63S, S97A, K103R
V domain 2: B1 V domain 2
B5: DOM11-37 (other)
chain: DIQMTQSPSSLSAFVGDRVTITCRASQDIEGQLRWYQQKPGKAPKLLIYFGSLLQSGVPSRFSGSGSGTVYTLTISSLQPEDFATYYCQQSHLFPATFGQGTKVEIKR
notes: Anti-CD38 dAb monomer
B6: DOM11-38 (other)
chain: DIQVTQSPSSLSASVGDRVTITCRASQEISSCLNWYQQKPGKAPKLLIYCTSVLQSGVPSRFSGSGSGTDFTLTISSLQPEDFATYYCQQRFGNPLTFGQGTKVEIKR
notes: Anti-CD38 dAb monomer
B7: DOM11-24 (other)
chain: DIQMTQSPSSLSASVGDRVTITCRASQEIHDYLSWYQQKPGKAPKLLIYLSSRLQSGVPSRFSGSGSGTDFTLTISSLQPEDFATYYCQQYHKGPYTFGQGTKVEIKR
notes: Anti-CD38 dAb monomer
B8: DOM11-39 (other)
chain: DIQMTQSPSSLSASVGDRVTITCRASQPIDGNLRWYQQKPGKAPRLLIYFTSILQSGVPSRFSGSGSGTDFTLTISSLQPEDFATYYCQQHRHWPATFGQGTKVEIKR
B9: DOM11-32 (other)
chain: DIQMTQSPSSLSASVGDRVTITCRASQWIGDSLVWYQQKPGKAPKLLIYFGSILQSGVPSRFSGSGSGTDFTLTISSLQPEDFATYYCQQHKTSPSTFGQGTKVEIKR
notes: Anti-CD38 dAb monomer
B10: DOM11-30-2 (other)
chain: DIQMTQSPSSLSASVGDRVTITCRTSQKIENDLAWYQQKPGKAPKLLIYYTSILQSGVPSRFSGSGSGTDFTLTISSLQPEDFATYYCQQRRYVPATFGQGTKVEIKR
B11: DOM11-30-3 (other)
chain: B10 chain with T25A, K42N, Q55H
B12: DOM11-30-1 (other)
chain: B10 chain with T25A, Q27L, V94A
B13: DOM11-3-1 (other)
chain: B1 V domain 1
B14: DOM11-3-2 (other)
chain: B1 V domain 1 with H27Q, A51T, R63S, S97M
B15: DOM14-63 (other)
chain: DIQMTQSPSSLSASVGDRVTITCRASQNISRGLRWYQQKPGKAPKLLIYHASKLQSGVPSRFSGSGSGTDFTLTISSLQPEDFATYYCQQYKVFPGTFGQGTKVEIKR
notes: Anti-CD56 dAb monomer
B16: DOM14-62 (other)
chain: DIQMTQSPSSLSASVGDRVTITCRASQNISYHLVWYQQKPGKAPKLLIYSSSNLQSGVPSRFSGSGSGTDFTLTISSLQPEDLATYYCQQLASWPHTLGQGTKVEIKR
notes: Anti-CD56 dAb monomer
B17: DOM14-68 (other)
chain: B7 chain with H30S, D31G, Y32E, S34T, L50F, R53I, Y91R, H92K, K93L, G94R
notes: Anti-CD56 dAb monomer
B18: DOM14-23 (other)
chain: DIQMTQSPSSLSASVGDRVTITCRASQDIFPFLNWYQQKPGKAPELLIYRASILHSGVPSRFSGSGSGTDFTLTISSLQPEDFATYYCQQIARSPRTFGQGTKVEIKR
notes: Anti-CD56 dAb
B19: DOM14-70 (other)
chain: DIQMTQSPSSLSASVGDRVTITCRASQEIGQWLNWYQQKPGKAPKLLIYWGSELQSGVPSRFSGSGSGTDFTLTISSLQPEDFATYYCQQVSRNPFTFGQGTKVEIKR
notes: Anti-CD56 dAb monomer
B20: DOM14-57 (other)
chain: B19 chain with E28Q, G30D, Q31D, W32Y, G51T, E53L, V91S, S92A, R93H, N94R
notes: Anti-CD56 dAb monomer
B21: DOM13-57 (other)
chain: DIQMTQSPSSLSASVGDRVTITCRASQGIMYHLRWYQQKPGKAPRLLIYHGSTLQSGVPARFSGSGSGTDFTLTISSLQPEDFATYYCQQTWNAPLTFGQGTKVEIKR
notes: Anti-CEA dAb monomer
B22: DOM13-65 (other)
chain: DIQMTQSPSSLSASVGDRVTITCRASQSIGMLLSWYQQKPGKAPKLLIYAVSRLQSGVPSRFSGSGSGTDFTLTISSLQPEDYATYYCQQMQRPPITFGQGTKVEIKR
notes: Anti-CEA dAb monomer
B23: DOM13-64 (other)
chain: B22 chain with M31T, S34N, V51S, Y83F, Q92N, P94V
notes: Anti-CEA dAb monomer
B24: DOM13-93 (other)
chain: DIQMTQSPSSLSASVGDRVTITCRASQDIGNMLAWYQQKPGKAPKPLIYYASYLQSGVPSRFSGSGSGTDFTLTISSLQPEDFATYYCQQMRDYPVTFGQGTKVEIKR
notes: Anti-CEA dAb monomer
B25: DOM13-58 (other)
chain: B24 chain with D28G, M32S, A34R, P46L, A51S, Y53H, M91I, D93T, Y94K, V96F
notes: Anti-CEA dAb monomer
B26: DOM13-95 (other)
chain: B24 chain with T5S, M91L, R92G, D93A, Y94K, V96H
notes: Anti-CEA dAb monomer

molecular target: T2, CD38 and CD138 co-expressed on cells (CD38+/CD138+ double positive cells) (UniProt P28907 1-300; P18827 23-310); experiment: FACS cell binding titration on OPM2 cells (CD38+/CD138+), arithmetic mean fluorescence. The table prints no unit; the unit is taken from the x axis 'log conc in nm' (nanomolar).
T2 construct: whole, on cells; Two separate membrane proteins on the same cell, not a complex; also called RPMI8226; OPM2
Procedure: (§1) The determination of cell binding by FACS was carried out as follows: cells were centrifuged at 250 g for 5 minutes and the growth medium was removed. The cells were resuspended in FACS incubation buffer at 4° C. at a density of 2×10⁶ cells/ml. The cells were blocked by incubating for 15 minutes at 4° C. in FACS incubation buffer. Fifty microliters of 2× stock of primary antibody (anti-CD38 FITC, anti-CD138 FITC or mIgG1 FITC conjugated isotype control (all BD Biosciences) was added; or dAb was added to cells in FACS incubation buffer and incubated for 30-60 minutes at 4° C. The cells were then washed once in FACS incubation buffer. One hundred microliters of secondary antibody (rabbit anti-Vk) was added to cells in FACS incubation buffer and incubated 30-60 minutes at 4° C. The cells were washed once in FACS incubation buffer. Then 100 ul of 1× tertiary antibody was added to the cells in FACS incubation buffer and incubated for 30-60 mins at 4° C. (for dAbs the tertiary antibody is anti-rabbit FITC (Sigma)). The cells were washed twice in FACS incubation buffer. The cell pellet was resuspend in 200 ul FACS incubation buffer+viable cell marker (BD Viaprobe). The cells were then analyzed by flow cytometry.
Anti-CD38 and anti-CD138 affinity matured dAbs were paired to create dual specific ligands by cloning an anti-CD38 dAb and an anti-CD138 dAb into a dual expression vector. To determine if the increased affinity of the monomers was reflected in increased binding affinity of the dual specific ligand, a range of the affinity matured anti-CD38 dAbs were paired with the anti-CD138 dAb DOM12-45, a range of affinity matured anti-CD138 dAbs were paired with anti-CD38 dAbs, and a range of affinity matured anti-CD38 dAbs and affinity matured anti-CD138 dAbs were paired. All dual specific ligands were expressed in E. coli and purified using protein L agarose followed by Resource S cation exchange chromatography when required. The binding affinity of the dual specific ligands was assessed by FACS as described previously. In this study, a range of concentrations was used to allow determination of EC50.

| EC50 [nM] | Binder |
| --- | --- |
| 13.8 | B1 |
| 16.7 | B2 |
| 11.9 | B3 |
| 11 | B4 |

molecular target: T3, CD38 on cells (UniProt P28907 1-300); experiment: FACS on RPMI cells (CD38+/138+)
T3 construct: whole, on cells; Endogenous CD38 on cell lines used in FACS or microscopy; also called DOM11; T10
Procedure: (§2) All dAbs were analysed by FACS on antigen positive and negative cell lines using the following method.
as §1

| binding result | Binder |
| --- | --- |
| binds | B5 |
| binds | B6 |
| binds | B7 |
| binds | B8 |
| binds | B9 |

molecular target: T4, CD38 immobilised on Biacore CM5 chip (UniProt P28907 43-300, limits assumed); experiment: Biacore, CD38 immobilised
T4 construct: also called DOM11
Procedure: (§3) Anti-CD38, anti-CEA and anti-CD56 dAbs that were identified as FACS positive clones were in addition analysed by Biacore using the following procedure. The CM5 chip surface was activated by flushing 1:1 EDC/NHS (0.4M1-ethyl-3-(3-dimenthylaminopropyl)-carbodiimide in water; 0.1 M N-hydroxysuccinimide in water) at a flow rate of 5 uL/min for 10 minute contact time. CD38 was immobilised at 500 nM in Acetate buffer pH4 at 5 uL/min this was repeated until the RUs reached between 500 and 1000 (low density). CEA and CD56 were coupled in acetate buffer pH 4.5. Any excess reactive groups were deactivated by running 1M ethanolamine-HCl over the CM5 chip (again 5 uL/min for 7 mins). The affinities of the anti-CD38, anti-CEA and anti-CD56 dAbs were measured on the biacore as described above.
Affinity maturation libraries were created for the anti-CD38 dAbs DOM11-3 and DOM11-30 by error prone PCR. […] Initial screening was carried out by BIAcore (as described previously) and subsequently by FACS.

| Kd [nM] | Binder |
| --- | --- |
| 62 to 76 | B10 |
| 86 to 93 | B11 |
| 19 | B12 |
| 62 | B13 |
| 130 to 160 | B14 |

molecular target: T5, CD56 immobilised on Biacore CM5 chip (UniProt P13591 20-718, limits assumed); experiment: Biacore, CD56 immobilised
T5 construct: also called DOM14
Procedure: as §3

| Kd [nM] | binding result | Binder |
| --- | --- | --- |
| 100 |  | B15 |
|  | no binding | B16 |
|  | no binding | B17 |
| 100 to 200 |  | B18 |
| 500 to 800 |  | B19 |
|  | no binding | B20 |

molecular target: T1, NCA on H647 cells; experiment: FACS on H647 cells (CEA-/NCA+)
Procedure: as §2, §1

| binding result | Binder |
| --- | --- |
| no binding | B21 |
| no binding | B22 |
| no binding | B23 |
| no binding | B24 |
| no binding | B25 |
| no binding | B26 |
